Laboratory results taken from patent US20050119205A1, “Methods of modulating heme oxygenase-1 expression and treating heme oxygenase-1 mediated conditions” (published 2005).
Substitutions are numbered along the chain they refer to.

Columns and labels:
[1] = target: the molecule itself; test: native PAGE (approx. 69 kDa band) against SDS-PAGE (~35 and ~40 kDa bands) of in vitro translated protein
Method: The transcribed mRNA was translated in the presence of [35S] methionine using rabbit reticulocyte lysate. In vitro translation was performed using micrococcal nuclease treated rabbit reticulocyte lysate (Promega). 50 μl reaction mixture was prepared by using 35 μl lysate, 1 μl of 0.1 M DTT, 2 μl of 1 mM amino acid mixture minus methionine, 1 μl of RNase inhibitor and 5 μl translation grade [³⁵S] methionine. 5 μl transcribed mRNA was added to the above reaction mixture and immediately incubated at 30° C. for 90 minutes. The in vitro translated proteins were resolved on 12% SDS or native polyacrylamide gel along with rainbow or native high molecular weight markers, respectively (Amersham Pharmacia). The gels were fixed in 10% acetic acid and 30% methanol then treated with autoradiography enhancer (Amplify, Amersham Pharmacia) for 30 min and dried under vacuum at 80° C. for 2 h, and autoradiographed at −70° C.
In vitro translated protein was assayed on native gel immediately after synthesis. […] A portion of the translated protein was treated with SDS and analyzed on denaturing 12% polyacrylamide gel.
Next, whether the protein synthesized by reticulocyte lysate is in fact hBVR was tested. […] As shown in the autoradiogram, two prominent bands at ˜35 and ˜40 kDa were detected. hBVR, based on its predicted amino acid composition, has a molecular weight of ˜34 kDa (Maines et al., Eur. J. Biochem.

[2] = target: the molecule itself; test: native 12% polyacrylamide gel, homodimer (~69 kDa band) formation
Method: In vitro translated protein was assayed on native gel immediately after synthesis. One μl of in vitro translated material was added to 2 μl (25 ng) of annealed, unlabelled control DNA fragment. To this 0.4 μg of poly dI•dC (Amersham Pharmacia) in 14 μl DNA binding buffer (10 mM Tris-chloride [pH 7.4], 50 mM NaCl, 1 mM MgCl₂, 1 mM EDTA, 1 mM DTT, 5% glycerol) was added. It was incubated for 5 min at room temperature and after adding 5 μl loading buffer (1.5×DNA binding buffer with bromophenol blue dye) samples were resolved on 12% native polyacrylamide gel in TAE buffer at 35 milliamps. The control DNA helps to prevent the formation of nonspecific protein aggregates, thereby increasing the resolution of protein bands (Halazonetis et al., Cell 55:917-924 (1988), which is hereby incorporated by reference in its entirety). A portion of the translated protein was treated with SDS and analyzed on denaturing 12% polyacrylamide gel.
(§1) For this set of experiments, the [³⁵S] methionine-labeled mutant BVR proteins were generated by in vitro translation and assayed on a 12% native gel for detection of the ˜69 kDa protein band and analysis of DNA for complex formation. The 100-mer DNA fragment with two AP-1 sites or without an AP-1 site were used. On the native gel the high molecular weight band was not detected with the mutated proteins.

hBVR L157A [3] = target: T1, hBVR L157A (Homo sapiens, UniProt P53004 SEQ:1-296, L157A); test: EMSA; signal same as native hBVR with zero AP-1 DNA; conditions: tags: rabbit reticulocyte lysate; chain copies: 2; label: 32P 5'
T1 sequence: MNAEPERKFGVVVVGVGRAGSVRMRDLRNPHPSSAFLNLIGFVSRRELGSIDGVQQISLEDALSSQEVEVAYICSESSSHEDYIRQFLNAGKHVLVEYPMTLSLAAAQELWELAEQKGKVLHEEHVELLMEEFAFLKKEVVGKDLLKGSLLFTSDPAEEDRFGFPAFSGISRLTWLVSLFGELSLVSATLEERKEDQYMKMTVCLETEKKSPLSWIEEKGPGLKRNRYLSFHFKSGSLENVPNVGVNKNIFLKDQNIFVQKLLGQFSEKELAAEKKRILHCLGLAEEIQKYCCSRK
Method: (§2) As with native gel analysis, in vitro translated proteins were assayed for DNA binding immediately after synthesis. 1 μl of translated material was added to 5000-500,000 cpm of [³²P]-labeled DNA fragment representing approximately 2-3 ng of DNA. 0.1 μg of poly (dI•dC) in 10 μl of DNA binding buffer was added to the labeled DNA. After incubating samples for 20 min at room temperature, 5 μl loading buffer was added. The samples were resolved on 12% native polyacrylamide gel with 35 m Amp at 4° C. The gels were processed as described above. Dried gels were put on two pieces of film separated by a piece of paper. Autoradiography was done at −70° C. for different time periods.
as §1

hBVR K143A [4] = target: T2, hBVR K143A (Homo sapiens, UniProt P53004 SEQ:1-296, K143A); test: as above; conditions: tags: rabbit reticulocyte lysate; chain copies: 2; label: 32P 5'
T2 sequence: T1 sequence with K143A, A157L
Method: as §2, §1

hBVR L150A [5] = target: T3, hBVR L150A (Homo sapiens, UniProt P53004 SEQ:1-296, L150A); test: as above; conditions: tags: rabbit reticulocyte lysate; chain copies: 2; label: 32P 5'
T3 sequence: T1 sequence with L150A, A157L
Method: as §2, §1

[6] = target: T4, biliverdin reductase (hBVR) (Homo sapiens, UniProt P53004 SEQ:1-296); test: EMSA; 10 mM Tris pH 7.4, 50 mM NaCl, 1 mM MgCl2, 1 mM EDTA, poly(dI-dC), room temperature; conditions: tags: rabbit reticulocyte lysate, 35S-Met labelled; chain copies: 2 (stated homodimer); label: 32P 5'
T4 chain: T1 sequence with A157L
Method: as §2
(§3) To determine whether the synthesized HBVR binds to DNA, the in vitro translated hBVR was incubated with [³²P]-labeled 56-mer or 100-mer DNA fragments. An identical 56 bp fragment in which the AP-I site was substituted with an unrelated sequence of equal length was used as control DNA. In addition, two identical 100 bp fragments with one AP-1 or zero AP-1 sites were synthesized and used as controls (OL.619, OL.620; OL.623-OL.630, Table 1). […] Also, binding of E. coli expressed hBVR protein, which is in monomeric form, to the 100-mer DNA fragment with two AP-1 sites was not detected.

[7] = target: T5, heme oxygenase-1 (hHO-1), E. coli expressed (Homo sapiens, UniProt P09601 P09601:1-288); test: EMSA; specificity control; conditions: label: 32P 5'
T5 sequence: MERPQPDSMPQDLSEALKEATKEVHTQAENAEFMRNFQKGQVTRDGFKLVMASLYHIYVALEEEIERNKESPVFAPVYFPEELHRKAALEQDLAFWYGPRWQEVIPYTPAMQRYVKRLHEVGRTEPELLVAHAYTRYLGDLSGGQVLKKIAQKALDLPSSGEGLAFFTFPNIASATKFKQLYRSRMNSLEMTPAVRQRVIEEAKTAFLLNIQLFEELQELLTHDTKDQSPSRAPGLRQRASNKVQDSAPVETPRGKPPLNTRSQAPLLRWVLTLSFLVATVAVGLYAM

[8] = target: T6, heme oxygenase-1 (HO-1), in vitro translated (UniProt P09601 P09601:1-288); test: EMSA; specificity control; conditions: tags: rabbit reticulocyte lysate; label: 32P 5'
T6 sequence: T5 sequence

hBVR L157A [9] = target: T1, hBVR L157A; test: EMSA; background signal only; conditions: tags: rabbit reticulocyte lysate; chain copies: 2; label: 32P 5'
Method: as §2, §1

hBVR K143A [10] = target: T2, hBVR K143A; test: EMSA; background signal only; conditions: tags: rabbit reticulocyte lysate; chain copies: 2; label: 32P 5'
Method: as §2, §1

hBVR L150A [11] = target: T3, hBVR L150A; test: EMSA; background signal only; conditions: tags: rabbit reticulocyte lysate; chain copies: 2; label: 32P 5'
Method: as §2, §1

[12] = target: T4, biliverdin reductase (hBVR); test: EMSA; conditions: tags: rabbit reticulocyte lysate, 35S-Met labelled; chain copies: 2 (stated homodimer); label: 32P 5'
Method: as §2, §3

B1: in vitro translated human biliverdin reductase (hBVR) (enzyme)
chain: T1 sequence with A157L
notes: the entries concern its self-association into a homodimer; also called translated hBVR; native in vitro translated hBVR
[1]
  binding result: binds

B2: in vitro translated hBVR mutant K143A (enzyme)
chain: T1 sequence with K143A, A157L
notes: Site-directed mutant made in p507 and translated in vitro with [35S] methionine; also called K3 mutant
[2]
  binding result: no binding

B3: in vitro translated hBVR mutant L150A (enzyme)
chain: T1 sequence with L150A, A157L
notes: Site-directed mutant made in p507 and translated in vitro with [35S] methionine; also called L4 mutant
[2]
  binding result: no binding

B4: in vitro translated hBVR mutant L157A (enzyme)
chain: T1 sequence
notes: Site-directed mutant made in p507 and translated in vitro with [35S] methionine; also called L5 mutant
[2]
  binding result: no binding

B5: 100-mer HO-1 promoter, two AP-1 sites (OL.623/OL.624) (dsDNA)
DNA 1: TCCTCAGCTGCTTTTATGCTGTGTCATGGTTGGGAGGGGTGATTAGCAGACAAAGGGAAGACAGATTTTGCTGAGTCACCCTCTGTTCCCTCTGCCTCAG
DNA 2: CTGAGGCAGAGGGAACAGAGGGTGACTCAGCAAAATCTGTCTTCCCTTTGTCTGCTAATCACCCCTCCCAACCATGACACAGCATAAAAGCAGCTGAGGA
hBVR L157A [3]
  binding result: no binding
hBVR K143A [4]
  binding result: no binding
hBVR L150A [5]
  binding result: no binding
[6]
  binding result: binds
[7]
  binding result: no binding
[8]
  binding result: no binding

B6: 100-mer, zero AP-1 sites (OL.625/OL.626) (dsDNA)
DNA 1: TCCTCAGCTGCTTTTATGCGATCCTCTGGTTGGGAGGGGTGATTAGCAGACAAAGGGAAGACAGATTTTGCGATCCTCCCCTCTGTTCCCTCTGCCTCAG
DNA 2: CTGAGGCAGAGGGAACAGAGGGGAGGATCGCAAAATCTGTCTTCCCTTTGTCTGCTAATCACCCCTCCCAACCAGAGGATCGCATAAAAGCAGCTGAGGA
hBVR L157A [9]
  binding result: no binding
hBVR K143A [10]
  binding result: no binding
hBVR L150A [11]
  binding result: no binding
[7]
  binding result: no binding

B7: 56-mer, one AP-1 site (OL.627/OL.628) (dsDNA)
DNA 1: CACTGAGAGAAACTATTACACAAGCCACATTAGCATGACTCATTGTTTCTGATCAG
DNA 2: CTGATCAGAAACAATGAGTCATGCTAATGTGGCTTGTGTAATAGTTTCTCTCAGTG
[8]
  binding result: no binding
[12]
  binding result: no binding
